How the values were obtained:
1433g_human YWHAG [1] = target: 1433g_human YWHAG (UniProt P61981)
1433g_human YWHAG [2] = target: 1433g_human YWHAG (UniProt P61981); remark: listed apart in the source

UniProt P61981, sequence (P61981 whole entry): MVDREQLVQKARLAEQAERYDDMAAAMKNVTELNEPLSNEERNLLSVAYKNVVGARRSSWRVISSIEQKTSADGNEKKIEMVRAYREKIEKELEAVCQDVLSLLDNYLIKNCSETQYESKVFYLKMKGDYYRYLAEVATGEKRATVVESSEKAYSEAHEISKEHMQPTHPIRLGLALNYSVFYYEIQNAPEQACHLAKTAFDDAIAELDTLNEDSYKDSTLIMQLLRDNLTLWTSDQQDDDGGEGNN

| effect of a mutation on the interaction (1433g_human YWHAG [1]) | effect of a mutation on the interaction (1433g_human YWHAG [2]) | Substance |
| --- | --- | --- |
| decreasing interaction strength |  | Leucine-rich repeat serine/threonine-protein kinase 2 (Homo sapiens), Q5S007 R1441C |
| decreasing interaction strength | with no effect | Leucine-rich repeat serine/threonine-protein kinase 2 (Homo sapiens), Q5S007 R1441G |
| decreasing interaction strength |  | Leucine-rich repeat serine/threonine-protein kinase 2 (Homo sapiens), Q5S007 R1441H |
